This is an account of results in US8414892.

The target of assay [1] is HLA class I (HLA A, B, C) (human). In words: indirect immunofluorescence, U2OS cells recultured at 37 C after antibody binding.
The target is the same in assay [2]. The assay is described as follows: indirect immunofluorescence.
For assay [3] the target is unchanged. In words: indirect immunofluorescence, U2OS cells.
The target in assay [4] is monoclonal antibody 8H9. In words: FACS inhibition, 5 ug/ml 8H9 on LAN-1 cells.
The target in assay [5] is 8H9 scFv-human gamma1-CH2-CH3 chimeric antibody (human). In words: FACS inhibition, 5 ug/ml 8H9-scFv-Fc on HTB82 cells.
In assay [6] the target is monoclonal antibody 8H9. The assay is described as follows: FACS inhibition, 5 ug/ml 8H9 on HTB-82 cells.
The target in another assay is MOPC 104E. In words: ELISA, MoAb coated. (In an ELISA, binding on a coated surface is turned into a signal by an enzyme label.)
A further assay deals with MoAb 3F8. The assay is described as follows: ELISA, MoAb coated.
The next assay addresses MOPC 21. The assay is described as follows: ELISA, MoAb coated.
A further assay concerns the target MoAb R24. In words: ELISA, MoAb coated.
The target of a further assay is HOPC-1. In words: ELISA, MoAb coated.
For another assay, the target named is UJ 13A. In words: ELISA, MoAb coated.
Another assay deals with TIB114. The assay is described as follows: ELISA, MoAb coated.
The target in a further assay is MOPC 315. In words: ELISA, MoAb coated.
For the next assay, the target named is FCOPC21. In words: ELISA, MoAb coated.
The target of assay [7] is monoclonal antibody 8H9. The assay is described as follows: ELISA, MoAb coated; ++ = OD 1~2.

Sequence of monoclonal antibody 8H9 (VH, as listed by the source limits assumed, chain 1 of 2): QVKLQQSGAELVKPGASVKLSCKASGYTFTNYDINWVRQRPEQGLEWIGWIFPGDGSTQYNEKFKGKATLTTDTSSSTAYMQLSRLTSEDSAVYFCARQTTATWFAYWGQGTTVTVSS
Sequence of monoclonal antibody 8H9 (VL, as listed by the source limits assumed, chain 2 of 2): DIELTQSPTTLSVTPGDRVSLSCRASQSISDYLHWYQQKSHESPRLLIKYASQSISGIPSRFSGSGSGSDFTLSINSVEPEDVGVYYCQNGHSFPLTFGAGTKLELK

anti-HLA A, B, C antibody HB-95 displayed a relative immunofluorescence remaining after 48 h in [1] of 11%. The loss of binding after 48 h at 37 C in assay [2] amounted to 85%; in [3], 89%.
The substance “rat anti-8H9 anti-idiotypic monoclonal antibody 2E9” had a concentration of 2E9 giving almost complete inhibition of 8H9 staining with monoclonal antibody 8H9 [4] of 10 µg/mL. For the same substance, the concentration of 2E9 without inhibition of 8H9 staining with monoclonal antibody 8H9 [4] and with monoclonal antibody 8H9 [6] was 2 µg/mL each time. The substance further had a concentration of 2E9 giving complete inhibition of 8H9-scFv-Fc staining in [5] of 1 µg/mL. Also, in the assay with monoclonal antibody 8H9 [6], the concentration of 2E9 giving complete inhibition of 8H9 staining stood at 10 µg/mL. Besides, the OD with MOPC 104E, with MoAb 3F8, in the assay with MOPC 21, with MoAb R24, in the assay with HOPC-1 and with UJ 13A was less than 0.5 od in each case. Also, the OD with TIB114 is less than 0.5 od; in the assay with MOPC 315, less than 0.5 od; with FCOPC21, less than 0.5 od; with monoclonal antibody 8H9 [7] it was 1 to 2 od.
